Data published in PMC5145181, “Structural Mapping and Functional Characterization of Zebrafish Class B G-Protein Coupled Receptor (GPCR) with Dual Ligand Selectivity towards GLP-1 and Glucagon” (PLoS ONE, 2016).

Legend:
[1] = biological target: zebrafish class B G-protein coupled receptor (zfGPCR), dual zfGLP-1R/GCGR (zebrafish (Danio rerio)); assay: radioligand binding; competitive displacement of 125I-exendin(9-39) (100,000 cpm/well) from recombinant zfGPCR on transiently transfected COS-7 cells in 24-well plates; cold peptide pM to μM in triplicate; 16-18 h at 4°C; IC50 by four-parameter logistic fit (Prism 4)
[2] = biological target: zebrafish class B G-protein coupled receptor (zfGPCR), dual zfGLP-1R/GCGR (zebrafish (Danio rerio)); assay: radioligand binding; competitive displacement of 125I-hGLP-1(7-36)amide (100,000 cpm/well) from recombinant zfGPCR on transiently transfected COS-7 cells in 24-well plates; cold peptide pM to μM in triplicate; 16-18 h at 4°C; IC50 by four-parameter logistic fit (Prism 4)
[3] = biological target: zebrafish class B G-protein coupled receptor (zfGPCR), dual zfGLP-1R/GCGR (zebrafish (Danio rerio)); assay: radioligand binding

Sequence of human GLP-1(7-36)amide (hGLP-1) (P01275 98-127): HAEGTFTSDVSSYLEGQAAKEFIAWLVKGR
Sequence of human glucagon (P01275 53-81): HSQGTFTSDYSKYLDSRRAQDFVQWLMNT

IC50 [2] [nM] | IC50 [3] [nM] | Substance | IC50 [1] [nM]
– | 67 | human glucagon (from UniProt P01275 53-81) (peptide) | –
2.1 | 290 | zebrafish GLP-1 (zfGLP-1) (peptide) | –
2.4 | 106 | zebrafish glucagon (peptide) | –
3.6 | 178 | human GLP-1(7-36)amide (hGLP-1) (from UniProt P01275 98-127) (peptide) | –

Substance | IC50 [2] [nM] | IC50 [3] [nM] | IC50 [1] [nM]
exendin-4 (from UniProt P26349 48-87) (peptide) | 0.48 | – | 1
exendin(9-39) (peptide) | 5.8 | – | 4.21
